The values that follow come from patent US7189506B1, “DNA binding compound-mediated molecular switch system” (Genelabs Technologies, Inc.).

Data set [1] concerns LacR. The following applies: modified LacR DNA response sequence SEQ ID NO:35.
Data set [2] has as its system p50 NF-κB. The data set can be described thus: Gel mobility shift assay, displacement of p50 NF-kB. The format is binding. The following applies: JF102 oligonucleotide. The source says:
A purified Thioredoxin-p50 NF-kB fusion protein (p50C) (Genelabs Technologies, Inc.) was used to generate five oligonucleotides comprising an NF-kB DNA response element and one or two overlapping binding sites for the AT-rich binder, 21x.
The exemplified NF-kB binding sites, […] (SEQ ID NO:29) and […] (SEQ ID NO:30) are present in the Igk and IL-6 promoters, respectively.
Oligonucleotides JF101 (SEQ ID NO:31) and 102 (SEQ ID NO:32), have compound binding sequences overlapping the right side of the NF-kB DNA response element, while in the case of JF103 (SEQ ID NO:33), the overlaps are from both sides (FIG. 7).

The test system of data set [3] is UL9-KRAB chimeric repressor (ULKRAB) (Herpes simplex virus type 1?). Briefly: cell_activity. The following applies: 0.8 to 1 ug pULKRAB.
Data set [4] deals with UL9-VP16 chimeric activator (ULVP) (Herpes simplex virus type 1?). The data set can be described thus: cell_activity. The following applies: 25 ng pULVP, HeLa.
The target of data set [5] is T1, LacR (lac repressor) (UniProt P03023 P03023:1-360). The data set can be described thus: EMSA; displaced by 21x more efficiently than by IPTG. The following applies: chain copies: 4; label: 32P.
T1 sequence (P03023 whole entry, the tested form may be a part, one chain of several): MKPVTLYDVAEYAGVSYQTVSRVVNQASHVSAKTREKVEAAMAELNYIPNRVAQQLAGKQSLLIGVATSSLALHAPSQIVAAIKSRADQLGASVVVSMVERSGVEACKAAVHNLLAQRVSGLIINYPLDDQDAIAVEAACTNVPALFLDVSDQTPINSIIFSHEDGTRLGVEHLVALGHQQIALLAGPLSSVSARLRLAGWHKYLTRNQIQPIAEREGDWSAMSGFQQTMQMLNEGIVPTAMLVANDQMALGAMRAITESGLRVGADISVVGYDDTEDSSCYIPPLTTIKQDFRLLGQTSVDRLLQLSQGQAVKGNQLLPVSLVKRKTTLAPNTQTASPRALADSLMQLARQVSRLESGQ
Data set [6] addresses T2, GST-UL9 (UL9 C-terminal DNA-binding domain) (Herpes simplex virus type 1?, UniProt P10193 P10193:535-851). Briefly: EMSA; 10 nM GST-UL9, 20 mM HEPES pH 7.5, 50 mM KCl, RT; displaced by 21x. The following applies: tags: GST fusion, pGEX-UL9 (Genelabs); label: 32P.
Data set [7] addresses T1, LacR (lac repressor). The data set can be described thus: EMSA; displaced by 21x. The following applies: chain copies: 4; label: 32P.
The target in data set [8] is T2, GST-UL9 (UL9 C-terminal DNA-binding …). Briefly: EMSA; 10 nM GST-UL9; 21x displacement most efficient with overlap at 3' end of site. The following applies: tags: GST fusion, pGEX-UL9 (Genelabs); label: 32P. A general note: In EMSA bound probe runs differently from free probe, usually more slowly.

T2 sequence (P10193 535-851, one chain of several): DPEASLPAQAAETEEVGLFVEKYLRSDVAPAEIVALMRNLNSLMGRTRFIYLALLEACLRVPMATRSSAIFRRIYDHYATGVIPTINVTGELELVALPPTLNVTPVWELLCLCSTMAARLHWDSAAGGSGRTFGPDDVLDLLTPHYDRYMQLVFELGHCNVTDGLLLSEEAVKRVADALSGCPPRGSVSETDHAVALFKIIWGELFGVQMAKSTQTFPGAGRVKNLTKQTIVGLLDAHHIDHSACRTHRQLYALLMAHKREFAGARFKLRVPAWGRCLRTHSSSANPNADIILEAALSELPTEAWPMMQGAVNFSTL

Turning to `CC(C)S[C@@H]1O[C@H](CO)[C@H](O)[C@H](O)[C@H]1O` [IPTG], the “LacR displacement efficiency, 21x versus IPTG” value in data set [1] is on record as 21x appears to displace LacR more efficiently than IPTG. On to `Cn1cc(NC(=O)c2cc(NC(=O)c3cc(NC=O)cn3C)cn2C)cc1C(=O)NCCC(=N)N` [distamycin], for which the “NF-kB displacement efficiency, 21x versus distamycin” value in data set [2] is given as 21x displaces NF-kB more efficiently than distamycin. Take “p5Gal/p5GalE GAL4 response element (5 tandem repeats)”: the activity is 62 % of basal in data set [3] (p5GalE control) and 2 fold in data set [4] (p5Gal, not activated significantly).

Take “p5UL/p5ULE UL9-21x response element (5 tandem repeats)”: the activity in data set [3] (p5ULE, HeLa) is 5 % of basal; in data set [4] (p5UL) it was 24 fold.

B1: lacO modified (dsDNA)
DNA 1: TTTTTTTTGTGAGCGGATAACAAAA
DNA 2: TTTTGTTATCCGCTCACAAAAAAAA
With B1, the binding result in data set [5] is listed as “binds”.

B2: YK 202LX (dsDNA)
DNA 1: CATGGACGCCACTGAGCCGTTTTTGTTCGCACTTGAGGCGAGTCGATGCACC
DNA 2: GGTGCATCGACTCGCCTCAAGTGCGAACAAAAACGGCTCAGTGGCGTCCATG
B2: in data set [6], the binding result is recorded as “binds”.

B3: lacO modified (symmetric) (dsDNA)
DNA 1: AAAAAATTGTGAGCGCTCACAATTTTTT
DNA 2: AAAAAATTGTGAGCGCTCACAATTTTTT
With B3, the binding result in data set [7] is “binds”.

B4: YK 202RX-A (dsDNA)
DNA 1: CATGGACGCCACTGAGCCGTGTTCGCACTTTTTTTTGAGGCGAGTCGATGCACC
DNA 2: GGTGCATCGACTCGCCTCAAAAAAAAGTGCGAACACGGCTCAGTGGCGTCCATG
For the molecule B4, the binding result in data set [8] was “binds”.

B5: YK 202RX (dsDNA)
DNA 1: CATGGACGCCACTGAGCCGTTTTTGTTCGCACTTTTTTTTGAGGCGAGTCGATGCACC
DNA 2: GGTGCATCGACTCGCCTCAAAAAAAAGTGCGAACAAAAACGGCTCAGTGGCGTCCATG
On to B5, for which the binding result in data set [8] is reported as “binds”.
